# Target: recombinant human tau(297–391) (human) (UniProt P10636)
# Experiment: co-sedimentation; pelletable tau: whole assembly reaction centrifuged at 400,000g, 20 °C, 15 min, pellet and supernatant quantified by SDS-PAGE; 720 min (Fig. 2b, PHF reaction)
substance,measurement,value
recombinant human tau(297–391) (from UniProt P10636-8 297-391) (domain or fragment),percent of tau pelletable,80 to 90%

# Source: publication PMC10764278
